“Also recorded” adds a separate entry of the source.

The subject of one assay is monocytes. Kind of assay: Checkerboard assay (chemokinesis). The format is cell-based, human.
In a further assay the test system is rabbit monocytes. In words: Rabbit monocyte chemotaxis. The settings on record: 1000 ng/ml (2.7×10^-8 M). The format is cell-based. As to the method: Peripheral blood mononuclear cells from adult female rabbits, were separated on a 61% PERCOLL (Pharmacia) gradient (Chambers et al.). This technique separated the mononuclear cells from the RBC and PMNs. No further separation of monocytes from lymphocytes was undertaken with the rabbit blood.
(§1) Chemotaxis was measured using the modified Boyden chamber technique (Snyderman et al.). The leading front method (Zigmond et al.) was used to assess migration of monocytes and lymphocytes through a 8 μm filter (Millipore Corporation, Bedford, Mass.). PMN chemotaxis was measured using a 3 μm filter (Millipore). The purified CAP37 protein (Example 1) used in chemotaxis assays were endotoxin-free as determined by the Limulus Amoebocyte Lysate Assay (Whittaker Bioproducts, Inc., Walkersville, Md.). The dilutions of CAP37 and N-formyl-methionyl-leucyl-phenylalanine (FMLP) were made in Geys buffer (Gibco) containing 2% endotoxin-free bovine serum albumin (BSA). Geys buffer containing 2% BSA served as the negative control, and a […] solution of FMLP as the positive control.
The chambers were incubated in a humidified atmosphere (6.2% CO2) for 2 hours when testing monocytes and lymphocytes, and for 30 minutes when testing PMNs. […] The cells were viewed using oil immersion and the distance the cells had migrated into the filter was determined over five different fields on the same slide (Zigmond et al.). […]

A further assay relates to P. mirabilis Re45. To be noted: (Shafer, 1986); cited from earlier work.
Another assay relates to Ps. aeruginosa. To be noted: (Shafer, 1986); cited from earlier work.
The subject of the next assay is human monocytes. Kind of assay: Monocyte chemotaxis, modified Boyden chamber technique. The format is cell-based. To be noted: for Distance migrated in μm: chemoattractant conc. 10^-9 M. As to the method: as §1
The chambers were incubated in a humidified atmosphere (6.2% CO2) for 2 hours when testing monocytes and lymphocytes, and for 30 minutes when testing PMNs. The filters were then removed and processed as previously described (Snyderman et al.). The cells were viewed using oil immersion and the distance the cells had migrated into the filter was determined over five different fields on the same slide (Zigmond et al.). Triplicate assays were performed for each experimental point.
The three peptides were tested for chemotactic activity towards monocytes using the modified Boyden Chamber technique described in Example 2. The monocyte chemotactic activity of each peptide fragment at concentrations ranging from 10^-7 to 10^-13 M was compared with Geys buffer (negative control), FMLP 10^-8 M (positive control) and purified CAP37 10^-9 M (positive control). […] The effect of peptide 1 on monocyte chemotaxis is illustrated in Table 2 while the effect of peptide 3 on monocyte chemotaxis is illustrated in Table 3.

The test system of a further assay is monocytes/macrophages. Kind of assay: In vivo chemotactic assay, intraperitoneal injection, peritoneal exudate cells. The arrangement: species or system BALB/c mice. To be noted: for % PMN / % monocytes: i.p., mice, peritoneal exudate. On the procedure: Female BALB/c mice (6-8 weeks) (Jackson Laboratory, Bar Harbor, […].) were injected intraperitoneally (i.p.) with 100 ng CAP37 (purified according to the method of the invention) per mouse in 2 ml RPMI-1640 serum-free medium (Mediatech). A control group of mice were injected i.p. with 2 ml brewers thioglycollate (4% w/v) (Difco Laboratories), a known stimulator of inflammatory cells whose action is well documented. A second control group of mice were injected j.p. with 2 ml of RPMI-1640 alone.
At 6, 24, 48 and 72 hours following these i.p. injections, four mice in each group were sacrificed by CO2 anesthesia. Ten ml sterile medium was injected into the peritoneal cavity of each mouse and the abdominal area gently massaged to dislodge the exudate cells. The medium containing the exudate cells was then aspirated from the peritoneal cavity using a 19 gauge needle attached to a syringe. The total number of cells in the peritoneal exudate was determined by counting the cells on a COULTER COUNTER (Coulter Electronics, Hialeah, Fla.: The operation of the COULTER COUNTER is based on electrical conductivity difference between particles and common diluent. Particles act as insulators, diluents as good conductors. The particles, suspended in an electrolyte, are forced through a small aperture through which an electrical current path has been established. As each particle displaces electrolyte in the aperture, a pulse essentially proportional to the particle volume is produced. Thus a 3-dimensional particle volume response is the basis for all sizing, regardless of position or orientation of the particle in solution.) One hundred μl of the peritoneal exudate was cytocentrifuged onto a glass slide and the cells stained with Wright's stain. A differential count of the cells was made by counting the number of monocytes, lymphocytes, neutrophils, basophils and eosinoplils per hundred consecutive cells. These experiments were performed to determine the time course of migration of neutrophils, monocytes, lymphocytes and other cells into the peritoneal cavity, in response to an i.p. injection of CAP37.

B1: CAP37: granule-associated cationic protein (mol. wt. 37,000 daltons) from human PMN, 222 amino acid mature protein (protein)
chain: IVGGRKARPRQFPFLASIQNQGRHFCGGALIHARFVMTAASCFQSQNPGVSTVVLGAYDLRRRERQSRQTFSISSMSENGYDPQQNLNDLMLLQLDREANLTSSVTILPLPLQNATVEAGTRCQVAGWGSQRSGGRLSRFPRFVNVTVTPEDQCRPNNVCTGVLTRRGGICNGDGGTPLVCEGLAHGVASFSLGPCGRGPDFFTRVALFRDWIDGVLNNPGP
As to B1, the “chemokinetic effect on monocytes” value with monocytes is given as “some chemokinetic effect”. The “chemotactic for rabbit monocytes” value in the assay with rabbit monocytes is recorded as “chemotactic”. For the same molecule, the “% survival with CAP 37” value in the assay on P. mirabilis Re45 was 100%; in the assay on Ps. aeruginosa it was 36%. The “Distance migrated in μm” value in the assay with human monocytes (Table 2) is 78.4 μm; with human monocytes (Table 3), 73.6 μm. Also, in the assay on human monocytes (modified Boyden chamber), the “monocyte chemotactic activity (in words)” value was “as effective as FMLP; also recorded: strong chemotactic properties”. In addition, the “migration of cells into the peritoneal cavity (in words)” value in the assay on monocytes/macrophages (100 ng CAP37 per mouse i.p.) is recorded as “moderately increased the overall numbers of cells; also recorded: potent monocyte chemoattractant capacity”. In the assay on monocytes/macrophages (100 ng CAP37 per mouse i.p.), the “time at which monocytes appeared in the peritoneal cavity” value stood at 24 h. The “% PMN” value was 65% with monocytes/macrophages (6 hours post injection); “dramatic reduction in neutrophils” with monocytes/macrophages (24 hours post injection); 26% in the assay with monocytes/macrophages (24 hours post injection, listed as CAP 37); 4% with monocytes/macrophages (48 hours post injection); 3% in the assay on monocytes/macrophages (72 hours post injection). Further, the “% monocytes” value in the assay with monocytes/macrophages (6 hours post injection) is on record as 7%; in the assay on monocytes/macrophages (24 hours post injection), 27%; with monocytes/macrophages (48 hours post injection) it was 48%; in the assay with monocytes/macrophages (72 hours post injection), 55%.

The values are drawn from patent US5458874A, “Method of increasing monocyte chemotaxis with CAP37 and monocyte chemotactic portions thereof” (Emory University, priority 1992, dated 1995).
